Measurements: patent US20090082262

Key:
[1] = system: T1, full size HCC-1 (HCC-1, residues 1-74)
T1 sequence: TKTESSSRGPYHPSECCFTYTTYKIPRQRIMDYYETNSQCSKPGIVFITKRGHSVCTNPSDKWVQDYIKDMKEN

PHC-1 (HCC-1[9-74]) = system: T2, PHC-1 (HCC-1[9-74])
T2 sequence: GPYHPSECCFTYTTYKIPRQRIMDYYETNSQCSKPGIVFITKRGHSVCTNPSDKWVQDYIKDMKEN

trypsin
tryptic digestion, 1 h, enzyme/substrate-ratio (w/w) 1/100 [1]: One cleavage product, the newly identified biologically active peptide PHC-1, comprising residues 9-74 of the HCC-1 precursor sequence, with the molecular mass of 7795 Da was obtained

urokinase
proteolytic degradation, activity after 90 min at 37° C with 10 or 100 IU urokinase (PHC-1 (HCC-1[9-74])): No change of activity was observed after an incubation of 90 min at 37 °C | proteolytic cleavage; product analysed by RP-HPLC, CCR5 aequorin assay, mass spectrometry and Edman degradation [1]: identifying PHC-1 and full size HCC-1 as the major compounds in these fractions
